Results published in article PMC4571306 (Molecular Biology of the Cell, 2015).

T1: GST-Kxd1 (S. cerevisiae, UniProt P53158 1-218)
T1 sequence (looked up): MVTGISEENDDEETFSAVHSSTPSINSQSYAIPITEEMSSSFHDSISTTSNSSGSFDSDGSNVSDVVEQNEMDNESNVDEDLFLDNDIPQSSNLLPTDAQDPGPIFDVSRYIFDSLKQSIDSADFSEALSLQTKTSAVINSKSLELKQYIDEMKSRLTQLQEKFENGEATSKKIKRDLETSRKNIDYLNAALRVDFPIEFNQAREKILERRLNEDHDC

B1: Vab2-GST (natural protein)
chain: MVADLTKGILKWKSRIEFDAVGSSSYYEELKGLPPLASHKKLTQAAIFNSTKYELLQVKKDILSIYEVVSRDIDEERNQMQQIELQLKKSLKKVEHSYKNVLKQRASTNCINGNDRLLANAEKKIGSLNEELACVNDIVSDIVNNLTALNANLPKKAQLLKDDSINVAHYPLLFDFLHKSCPKSIIATSEASIHENASPSPLLEHDELPAESINSFYGENELQSDSLAPLQTHDDNISSCKKILPPKFNTTSGPSIETNFENISADGLTYTKCSLKNSISLT
B2: HS-Cnl1 (natural protein, S. cerevisiae, UniProt Q06333 1-122, looked up)
chain: MQDNSSHSRESASAGDDPLGIDKLTVDYDYLLYKMRDYVQSIQLDTTELCKKQNEVMVNGIIENTIDKNIAKFKELLEKCDTLENHYEMLNQLAIITDTFKERIAEAVNNYNSLKKGASKSK
B3: HS-Bli1 (natural protein, S. cerevisiae, UniProt P35727 1-113, looked up)
chain: MGEQNKLYYDVEKLVNSLQESFDLDCAQSVSLFTSKSRSNEAWLEELENKFKLKDDVELDDVENLRAEIDMKLNMLEDKVSYYERLYKELEEFQNEIKIKTVVNNRRQSRTPK
B4: GST-Bli1 (natural protein, S. cerevisiae, UniProt P35727 1-113, looked up)
chain: B3 chain

Columns and labels:
Assay in all cases: pull-down
HS-Snn1 = HS-Snn1 (S. cerevisiae, UniProt P48232 1-102)
GST-Kxd1 = molecular target: T1, GST-Kxd1
GST-Snn1 = GST-Snn1 (S. cerevisiae, UniProt P48232 1-102)
Vab2-GST = molecular target: B1
HS-Cnl1 = molecular target: B2

Binder: B1
binding result (HS-Snn1): binds

Binder: B2
binding result (GST-Kxd1): binds

Binder: B3
binding result (GST-Snn1): binds
binding result (Vab2-GST): binds

Binder: B4
binding result (HS-Cnl1): binds
